From PMC4938175, “Conserved Sequence Preferences Contribute to Substrate Recognition by the Proteasome*^([image sbox.jpg])” (The Journal of Biological Chemistry, 2016) come the findings set out here.

The assay has as its target purified S. cerevisiae proteasome (S. cerevisiae). The assay is described as follows: competitive inhibition of proteasomal degradation of a fluorescent substrate; apparent Ki; DHFR-tail competitor varied, UbL-GFP-95 substrate, 40 nM purified yeast proteasome; loss of GFP fluorescence in 384-well plates; 30 °C (methods; the legend of Figure 7 says room temperature); 50 mM Tris, 5 mM MgCl2, 2.5% glycerol, 1 mM ATP, 4 mM DTT, 0.2 mg/ml BSA, 10 mM creatine phosphate, 0.1 mg/ml creatine kinase, pH 7.5; …. Conditions: both partners purified.

B1: DHFR-eRR (other)
chain: MISLIAALAVDRVIGMENAMPWNLPADLAWFKRNTLNKPVIMGRHTWESIGRPLPGRKNIILSSQPGTDDRVTWVKSVDEAIAACGDVPEIMVIGGGRVYEQFLPKAQKLYLTHIDAEVEGDTHFPDYEPDDWESVFSEFHDADAQNSHSYCFEILERRPRGGGGAWLLPVSLVRRRTTLAPNTQTASPRALADS
Take B1: the Ki was determined as 36 ± 5 µM.

B2: DHFR-GRR (other)
chain: MISLIAALAVDRVIGMENAMPWNLPADLAWFKRNTLNKPVIMGRHTWESIGRPLPGRKNIILSSQPGTDDRVTWVKSVDEAIAACGDVPEIMVIGGGRVYEQFLPKAQKLYLTHIDAEVEGDTHFPDYEPDDWESVFSEFHDADAQNSHSYCFEILERRPRDSFGGGSGAGAGGGGMFGSGGGG
B2: the Ki turned out to be 130 ± 20 µM.

B3: DHFR-35 (other)
chain: MISLIAALAVDRVIGMENAMPWNLPADLAWFKRNTLNKPVIMGRHTWESIGRPLPGRKNIILSSQPGTDDRVTWVKSVDEAIAACGDVPEIMVIGGGRVYEQFLPKAQKLYLTHIDAEVEGDTHFPDYEPDDWESVFSEFHDADAQNSHSYCFEILERRPRLRYQPLLRISQNCEAAILRASQTRLNTIHHHHHH
Consider B3, for which the Ki is 36 ± 6 µM.
